The supplement of paper PMC9112550, “Optimization of the antimicrobial peptide Bac7 by deep mutational scanning” (BMC Biology, 2022)

Tested on: Escherichia coli TOP10
Assay: shrunken log2 fold change of peptide-encoding DNA abundance (4.5 h post-induction vs induction); higher = less antimicrobial activity (less host growth inhibition)
Details: time post-induction: 4.5 h; library: site-saturation at positions 5, 18, 19, 20
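Further: peptides expressed intracellularly from a pBAD plasmid library in pooled LB shake-flask culture, induced with 0.3% L-arabinose, DNA abundance read by NGS, three biological replicates, DESeq2 with apeglm shrinkage.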

Sequence	shrunken log2 fold change
RRIRNRPPRLPRPRPRPLNDPRP	-0.0316
RRIRARPPRLPRPRPRPVPYPRP	-0.0718
RRIRQRPPRLPRPRPRPPLLPRP	-0.114
RRIRFRPPRLPRPRPRPSTMPRP	-0.391
RRIRKRPPRLPRPRPRPQIAPRP	-0.11
RRIRSRPPRLPRPRPRPDFAPRP	-0.021
RRIRLRPPRLPRPRPRPSLIPRP	-0.217
RRIRHRPPRLPRPRPRPLFHPRP	-0.462
RRIRNRPPRLPRPRPRPQMIPRP	-0.0608
RRIRERPPRLPRPRPRPNWNPRP	-0.236
RRIRRRPPRLPRPRPRPARLPRP	0.269
RRIRPRPPRLPRPRPRPGSHPRP	0.142
RRIRFRPPRLPRPRPRPNVDPRP	-0.0445
RRIRERPPRLPRPRPRPVKLPRP	-0.0426
RRIRLRPPRLPRPRPRPDIWPRP	-0.137
RRIRPRPPRLPRPRPRPAKDPRP	-0.111
RRIRDRPPRLPRPRPRPCMYPRP	0.126
RRIRIRPPRLPRPRPRPNCYPRP	-0.923
RRIRERPPRLPRPRPRPNKYPRP	0.202
RRIRNRPPRLPRPRPRPWSTPRP	-0.0852
RRIRHRPPRLPRPRPRPDPDPRP	-0.0982
RRIRFRPPRLPRPRPRPSFHPRP	-0.694
RRIRMRPPRLPRPRPRPMMYPRP	-0.0758
RRIRPRPPRLPRPRPRPAYGPRP	0.144
RRIRSRPPRLPRPRPRPEPRPRP	0.586

Sequence	shrunken log2 fold change
RRIRNRPPRLPRPRPRPHKVPRP	-0.513
RRIRERPPRLPRPRPRPSYWPRP	-0.266
RRIRSRPPRLPRPRPRPYGLPRP	-0.0943
RRIRMRPPRLPRPRPRPLTIPRP	0.19
RRIRRRPPRLPRPRPRPDVFPRP	0.06
RRIRNRPPRLPRPRPRPTPKPRP	0.222
RRIRTRPPRLPRPRPRPSCRPRP	-0.219
RRIRCRPPRLPRPRPRPDSHPRP	-0.199
RRIRIRPPRLPRPRPRPAYHPRP	-0.639
RRIRHRPPRLPRPRPRPYTTPRP	-1.14
RRIRSRPPRLPRPRPRPLHVPRP	-0.245
RRIRNRPPRLPRPRPRPIYWPRP	0.0553
RRIRSRPPRLPRPRPRPNNSPRP	-0.724
RRIRKRPPRLPRPRPRPYNDPRP	-0.00691
RRIRTRPPRLPRPRPRPKGNPRP	-0.403
RRIRWRPPRLPRPRPRPGATPRP	1.02
RRIRYRPPRLPRPRPRPIHAPRP	-1.49
RRIRVRPPRLPRPRPRPLATPRP	0.309
RRIRMRPPRLPRPRPRPQARPRP	0.575
RRIRWRPPRLPRPRPRPAHRPRP	0.49
RRIRRRPPRLPRPRPRPYQQPRP	-0.000903
RRIRERPPRLPRPRPRPQLLPRP	-0.324
RRIRYRPPRLPRPRPRPTQEPRP	0.0039
RRIRERPPRLPRPRPRPCGCPRP	-0.0805
RRIRDRPPRLPRPRPRPEWKPRP	-0.0135

Sequence	shrunken log2 fold change
RRIRLRPPRLPRPRPRPKVCPRP	0.0264
RRIRGRPPRLPRPRPRPQWQPRP	-0.134
RRIRVRPPRLPRPRPRPNTYPRP	-0.71
RRIRKRPPRLPRPRPRPDHKPRP	-0.0248
RRIRERPPRLPRPRPRPEKGPRP	-0.0493
RRIRWRPPRLPRPRPRPYLQPRP	-0.113
RRIRYRPPRLPRPRPRPISKPRP	-0.562
RRIRERPPRLPRPRPRPYHAPRP	0.00489
RRIRTRPPRLPRPRPRPKWMPRP	0.00414
RRIRSRPPRLPRPRPRPIAWPRP	-0.0861
RRIRARPPRLPRPRPRPTCDPRP	0.534
RRIRHRPPRLPRPRPRPWEEPRP	-0.0121
RRIRKRPPRLPRPRPRPGHWPRP	0.2
RRIRSRPPRLPRPRPRPFWWPRP	0.309
RRIRYRPPRLPRPRPRPQHRPRP	-0.602
RRIRIRPPRLPRPRPRPPYDPRP	-0.814
RRIRCRPPRLPRPRPRPFRAPRP	-0.277
RRIRLRPPRLPRPRPRPVNEPRP	-0.0825
RRIRGRPPRLPRPRPRPIDFPRP	-0.0475
RRIRQRPPRLPRPRPRPIFHPRP	-0.176
RRIRGRPPRLPRPRPRPYVVPRP	-0.0656
RRIRKRPPRLPRPRPRPIHKPRP	-0.211
RRIRFRPPRLPRPRPRPCEIPRP	-0.348
RRIRNRPPRLPRPRPRPKAVPRP	0.301
RRIRDRPPRLPRPRPRPDSAPRP	-0.0433

Sequence	shrunken log2 fold change
RRIRQRPPRLPRPRPRPKSWPRP	0.19
RRIRFRPPRLPRPRPRPFSTPRP	-0.0736
RRIRGRPPRLPRPRPRPVQEPRP	0.873
RRIRRRPPRLPRPRPRPTTFPRP	3.05
RRIRWRPPRLPRPRPRPVTMPRP	-0.0519
RRIRIRPPRLPRPRPRPCVHPRP	-1.13
RRIRTRPPRLPRPRPRPSWPPRP	0.0669
RRIRKRPPRLPRPRPRPVFQPRP	0.447
RRIRCRPPRLPRPRPRPWNNPRP	-0.107
RRIRWRPPRLPRPRPRPLVMPRP	0.000565
RRIRRRPPRLPRPRPRPECHPRP	0.171
RRIRIRPPRLPRPRPRPKLIPRP	-0.233
RRIRDRPPRLPRPRPRPPYMPRP	-0.464
RRIRIRPPRLPRPRPRPKGQPRP	0.143
RRIRTRPPRLPRPRPRPMIVPRP	-0.158
RRIRWRPPRLPRPRPRPQWKPRP	-0.17
RRIRCRPPRLPRPRPRPETCPRP	0.0181
RRIRWRPPRLPRPRPRPWYDPRP	-0.31
RRIRCRPPRLPRPRPRPWWLPRP	-0.0111
RRIRTRPPRLPRPRPRPFASPRP	-0.00185
RRIRWRPPRLPRPRPRPIGNPRP	0.137
RRIRARPPRLPRPRPRPPHQPRP	0.952
RRIRLRPPRLPRPRPRPISIPRP	0.111
RRIRRRPPRLPRPRPRPICIPRP	0.232
RRIRRRPPRLPRPRPRPDNLPRP	0.000421

Sequence	shrunken log2 fold change
RRIRGRPPRLPRPRPRPQNEPRP	0.208
RRIRLRPPRLPRPRPRPRVNPRP	-0.155
RRIRYRPPRLPRPRPRPSETPRP	-0.523
RRIRDRPPRLPRPRPRPTTEPRP	0.578
RRIRKRPPRLPRPRPRPETGPRP	0.226
RRIRMRPPRLPRPRPRPHFVPRP	-0.025
RRIRLRPPRLPRPRPRPCNMPRP	0.0385
RRIRYRPPRLPRPRPRPFVQPRP	-0.0236
RRIRMRPPRLPRPRPRPNSTPRP	0.0221
RRIRIRPPRLPRPRPRPWSNPRP	-0.0121
RRIRRRPPRLPRPRPRPMFAPRP	0.24
RRIRGRPPRLPRPRPRPPRTPRP	1.33
RRIRERPPRLPRPRPRPNLLPRP	0.107
RRIRDRPPRLPRPRPRPPAYPRP	-0.0668
RRIRGRPPRLPRPRPRPCQIPRP	-0.0259
RRIRWRPPRLPRPRPRPRWVPRP	0.454
RRIRCRPPRLPRPRPRPLMNPRP	-0.645
RRIRYRPPRLPRPRPRPPIKPRP	-0.518
RRIRTRPPRLPRPRPRPQLEPRP	0.341
RRIRHRPPRLPRPRPRPGCKPRP	0.229
RRIRERPPRLPRPRPRPNEEPRP	0.00699
RRIRVRPPRLPRPRPRPYLAPRP	-0.413
RRIRVRPPRLPRPRPRPFEQPRP	0.162
RRIRHRPPRLPRPRPRPGVEPRP	0.0675
RRIRKRPPRLPRPRPRPHPEPRP	0.39
